Measurements published in article PMC6940745 (International Journal of Molecular Sciences, 2019).
[ ]: non-standard residue; d: D form. The star is where a group is joined. N(indol-3-ylmethyl)Gly = O=C(O)CNCc1c[nH]c2ccccc12; Bz = O=C(c1ccccc1)*; NPr2 = CCCN(CCC)*

What was measured:
[1] = target: Melanocortin-1 receptor (MC1R), human recombinant, in CHO-K1 cells (human) (UniProt Q01726)
[2] = target: Melanocortin-1 receptor (MC1R), human recombinant, in CHO-K1 cells (human) (UniProt Q01726); remark: listed apart in the source
[3] = target: Melanocortin-3 receptor (MC3R), recombinant, in CHO-K1 cells (human) (UniProt P41968)
[4] = target: Melanin-concentrating hormone receptor MCH1R, human (human) (UniProt Q99705)
[5] = target: Melanocortin-4 receptor (MC4R), recombinant, in CHO-K1 cells (human) (UniProt P32245)
[6] = target: Serotonin receptor 5-HT2AR, human (human) (UniProt P28223)
Melatonin receptor MT1R = Melatonin receptor MT1R (UniProt P48039)
[7] = target: Opioid receptor OP1R (human delta opioid receptor) (human) (UniProt P41143)
[8] = target: Opioid receptor OP2R (human kappa opioid receptor) (human) (UniProt P41145)
[9] = target: Melanocortin-2 receptor (MC2R), recombinant, in CHO-K1 cells (human) (UniProt Q01718)
[10] = target: Endothelin B-receptor (ETBR), human (human) (UniProt P24530)
[11] = target: Opioid receptor OP3R (human mu opioid receptor) (human) (UniProt P35372)
[12] = target: Melanin-concentrating hormone receptor MCH2R, human (human) (UniProt Q969V1)
Melatonin receptor MT2R = target: T1, Melatonin receptor MT2R (UniProt P49286)
T1 sequence: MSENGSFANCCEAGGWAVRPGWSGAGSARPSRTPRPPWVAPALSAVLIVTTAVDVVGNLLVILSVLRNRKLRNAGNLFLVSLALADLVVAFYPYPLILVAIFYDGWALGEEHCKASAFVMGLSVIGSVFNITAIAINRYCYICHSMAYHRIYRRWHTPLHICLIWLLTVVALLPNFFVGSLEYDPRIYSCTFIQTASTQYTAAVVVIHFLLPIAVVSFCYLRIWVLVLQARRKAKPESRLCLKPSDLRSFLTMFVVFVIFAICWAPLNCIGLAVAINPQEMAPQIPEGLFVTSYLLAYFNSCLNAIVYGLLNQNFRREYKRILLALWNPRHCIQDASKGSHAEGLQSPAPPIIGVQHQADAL

[13] = target: Melanocortin-5 receptor (MC5R), recombinant, in CHO-K1 cells (human) (UniProt P33032)
Melanocortin-5 receptor (MC5R), recombinant, in CHO-K1 cells (human), sequence (P33032 whole entry): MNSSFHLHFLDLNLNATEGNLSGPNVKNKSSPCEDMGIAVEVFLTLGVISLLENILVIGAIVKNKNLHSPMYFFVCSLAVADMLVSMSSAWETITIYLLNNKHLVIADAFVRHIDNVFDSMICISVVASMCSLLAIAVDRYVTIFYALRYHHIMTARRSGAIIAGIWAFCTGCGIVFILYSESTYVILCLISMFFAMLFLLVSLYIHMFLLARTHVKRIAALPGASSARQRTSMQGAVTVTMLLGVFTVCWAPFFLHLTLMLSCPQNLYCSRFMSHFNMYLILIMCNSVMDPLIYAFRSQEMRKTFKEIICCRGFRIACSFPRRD

Melanocortin-1 receptor (MC1R), human recombinant, in CHO-K1 cells (human), sequence (Q01726 whole entry): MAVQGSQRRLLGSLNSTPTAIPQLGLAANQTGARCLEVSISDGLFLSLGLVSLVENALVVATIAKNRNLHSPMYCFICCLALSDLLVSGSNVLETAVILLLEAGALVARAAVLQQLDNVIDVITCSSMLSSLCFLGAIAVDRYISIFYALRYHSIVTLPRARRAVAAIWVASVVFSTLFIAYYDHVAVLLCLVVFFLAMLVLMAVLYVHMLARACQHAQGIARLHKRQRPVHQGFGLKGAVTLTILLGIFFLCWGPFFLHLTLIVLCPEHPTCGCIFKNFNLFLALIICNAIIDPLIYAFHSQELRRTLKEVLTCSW
Melanin-concentrating hormone receptor MCH2R, human (human), sequence (Q969V1 whole entry): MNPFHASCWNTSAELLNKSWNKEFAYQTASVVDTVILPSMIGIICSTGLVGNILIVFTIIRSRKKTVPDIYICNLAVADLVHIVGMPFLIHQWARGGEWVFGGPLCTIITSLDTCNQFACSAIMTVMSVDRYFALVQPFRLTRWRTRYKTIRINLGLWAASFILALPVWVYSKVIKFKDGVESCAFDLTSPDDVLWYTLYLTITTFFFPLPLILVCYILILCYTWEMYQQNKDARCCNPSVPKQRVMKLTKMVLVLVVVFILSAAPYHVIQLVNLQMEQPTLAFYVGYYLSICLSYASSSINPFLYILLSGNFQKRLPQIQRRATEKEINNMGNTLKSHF
Melanocortin-3 receptor (MC3R), recombinant, in CHO-K1 cells (human), sequence (P41968 whole entry): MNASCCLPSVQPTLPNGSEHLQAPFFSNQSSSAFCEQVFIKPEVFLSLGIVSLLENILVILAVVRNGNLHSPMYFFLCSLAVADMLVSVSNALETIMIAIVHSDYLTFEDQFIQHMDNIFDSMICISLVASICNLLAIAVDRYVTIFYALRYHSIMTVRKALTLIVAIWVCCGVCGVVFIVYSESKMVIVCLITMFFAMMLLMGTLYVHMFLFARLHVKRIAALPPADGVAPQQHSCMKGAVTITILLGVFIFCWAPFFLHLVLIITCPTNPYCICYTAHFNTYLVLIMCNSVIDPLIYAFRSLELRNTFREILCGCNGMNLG
Melanocortin-2 receptor (MC2R), recombinant, in CHO-K1 cells (human), sequence (Q01718 whole entry): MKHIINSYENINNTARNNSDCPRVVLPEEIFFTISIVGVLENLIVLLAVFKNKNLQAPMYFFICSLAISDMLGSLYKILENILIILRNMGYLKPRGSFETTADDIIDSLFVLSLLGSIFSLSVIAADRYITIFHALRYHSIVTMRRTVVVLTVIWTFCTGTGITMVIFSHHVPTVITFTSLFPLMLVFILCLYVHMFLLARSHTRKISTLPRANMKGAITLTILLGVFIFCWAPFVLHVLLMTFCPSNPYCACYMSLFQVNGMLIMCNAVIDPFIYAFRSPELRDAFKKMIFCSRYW
Endothelin B-receptor (ETBR), human (human), sequence (P24530 27-442): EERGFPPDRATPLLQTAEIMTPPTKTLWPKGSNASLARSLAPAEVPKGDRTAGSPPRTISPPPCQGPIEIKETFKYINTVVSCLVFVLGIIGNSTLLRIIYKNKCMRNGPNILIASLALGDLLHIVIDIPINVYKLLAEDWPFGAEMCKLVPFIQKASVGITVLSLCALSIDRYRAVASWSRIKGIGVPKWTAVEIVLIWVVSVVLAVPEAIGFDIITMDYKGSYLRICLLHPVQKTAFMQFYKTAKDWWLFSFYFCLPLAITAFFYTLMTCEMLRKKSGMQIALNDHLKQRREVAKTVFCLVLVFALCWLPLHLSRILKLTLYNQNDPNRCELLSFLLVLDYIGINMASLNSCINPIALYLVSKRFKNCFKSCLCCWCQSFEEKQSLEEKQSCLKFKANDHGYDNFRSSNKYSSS
Melanin-concentrating hormone receptor MCH1R, human (human), sequence (Q99705 whole entry): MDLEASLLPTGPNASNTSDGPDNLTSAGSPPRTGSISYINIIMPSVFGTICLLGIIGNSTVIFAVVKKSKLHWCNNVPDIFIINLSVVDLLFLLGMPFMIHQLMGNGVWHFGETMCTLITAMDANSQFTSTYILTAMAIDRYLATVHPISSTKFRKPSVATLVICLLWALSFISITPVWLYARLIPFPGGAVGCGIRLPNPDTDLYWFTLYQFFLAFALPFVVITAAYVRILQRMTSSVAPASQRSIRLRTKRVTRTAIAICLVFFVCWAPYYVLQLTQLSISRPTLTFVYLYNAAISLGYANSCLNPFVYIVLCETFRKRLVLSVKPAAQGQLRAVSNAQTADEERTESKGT
Melatonin receptor MT1R, sequence (P48039 whole entry): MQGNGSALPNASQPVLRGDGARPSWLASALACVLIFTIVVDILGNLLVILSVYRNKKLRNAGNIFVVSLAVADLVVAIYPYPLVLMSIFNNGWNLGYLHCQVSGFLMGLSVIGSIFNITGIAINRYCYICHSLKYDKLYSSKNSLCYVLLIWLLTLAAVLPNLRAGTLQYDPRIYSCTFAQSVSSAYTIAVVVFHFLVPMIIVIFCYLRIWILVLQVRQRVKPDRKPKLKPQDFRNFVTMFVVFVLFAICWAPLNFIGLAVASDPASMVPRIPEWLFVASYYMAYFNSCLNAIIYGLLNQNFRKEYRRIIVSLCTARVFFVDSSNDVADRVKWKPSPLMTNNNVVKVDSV
Melanocortin-4 receptor (MC4R), recombinant, in CHO-K1 cells (human), sequence (P32245 whole entry): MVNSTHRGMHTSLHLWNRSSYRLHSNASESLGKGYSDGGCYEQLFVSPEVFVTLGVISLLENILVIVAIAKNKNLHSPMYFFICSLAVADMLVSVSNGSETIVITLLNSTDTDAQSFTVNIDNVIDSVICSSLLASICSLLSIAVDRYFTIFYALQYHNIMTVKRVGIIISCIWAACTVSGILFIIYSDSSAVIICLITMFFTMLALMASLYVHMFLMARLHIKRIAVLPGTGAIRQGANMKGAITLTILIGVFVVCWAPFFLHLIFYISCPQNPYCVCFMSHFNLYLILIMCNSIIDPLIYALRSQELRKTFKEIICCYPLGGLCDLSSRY

“MC1R-agonist pentapeptide 2 (Bz-Gly-His-D-Phe-Arg-L-NaphAla-NH2)” was tested. Which EC50 of MC1R activation (cAMP HTRF assay, CHO-K1 cells expressing human MC1R) [1] did it give?
Its EC50 of MC1R activation (cAMP HTRF assay, CHO-K1 cells expressing human MC1R) is 0.11 nM.

For “MC1R-agonist pentapeptide 3 (Bz-Gly-His-D-Phe-Arg-D-NaphAla-NH2)”, which EC50 of MC1R activation (cAMP HTRF assay, CHO-K1 cells expressing human MC1R) [1] is on record?
The EC50 of MC1R activation (cAMP HTRF assay, CHO-K1 cells expressing human MC1R) was 0.25 nM.

For “MC1R-agonist pentapeptide 8 (Bz-Gly-His-D-Phe-Dab-L-Trp-NH2)”, which EC50 of MC1R activation (cAMP HTRF assay, CHO-K1 cells expressing human MC1R) [1] is on record?
Its EC50 of MC1R activation (cAMP HTRF assay, CHO-K1 cells expressing human MC1R) is 7.51 nM.

For “NDP-alpha-MSH [Nle^4, D-Phe^7] (peptide)”, which EC50 of MC1R activation (cAMP production, recombinant CHO-MC1R cell line; control compound) [2] is on record?
Its EC50 of MC1R activation (cAMP production, recombinant CHO-MC1R cell line; control compound) is 0.071 nM.

B1: MC1R-agonist pentapeptide 4 (Bz-Gly-His-D-Phe-Arg-D-Trp-N(Propyl)2) (peptide)
peptide: Bz-GH[dF]R[dW]-NPr2
SMILES: CCCN(CCC)C(=O)[C@@H](Cc1c[nH]c2ccccc12)NC(=O)[C@H](CCCNC(=N)N)NC(=O)[C@@H](Cc1ccccc1)NC(=O)[C@H](Cc1c[nH]cn1)NC(=O)CNC(=O)c1ccccc1
With B1 as the molecule, how does the EC50 of receptor activation (cAMP HTRF assay, CHO-K1 cells; eight concentrations from 0.01 to 100,000 nM) [3] read?
The EC50 of receptor activation (cAMP HTRF assay, CHO-K1 cells; eight concentrations from 0.01 to 100,000 nM) was 877 nM.

And the EC50 of receptor activation (Aequorin assay, recombinant cells; eight concentrations from 0.01 to 100,000 nM) [4]?
Its EC50 of receptor activation (Aequorin assay, recombinant cells; eight concentrations from 0.01 to 100,000 nM) is greater than 100000 nM.

And the EC50 of receptor activation (cAMP HTRF assay, CHO-K1 cells; eight concentrations from 0.01 to 100,000 nM) [5]?
The EC50 of receptor activation (cAMP HTRF assay, CHO-K1 cells; eight concentrations from 0.01 to 100,000 nM) was 136 nM.

And the EC50 of receptor activation (Aequorin assay, recombinant cells; eight concentrations from 0.01 to 100,000 nM) [6]?
The EC50 of receptor activation (Aequorin assay, recombinant cells; eight concentrations from 0.01 to 100,000 nM) was greater than 100000 nM.

And the EC50 of receptor activation (GTPγ[35S] scintillation proximity assay on CHO-K1 membrane preparations; eight concentrations from 0.01 to 100,000 nM) (Melatonin receptor MT1R)?
Its EC50 of receptor activation (GTPγ[35S] scintillation proximity assay on CHO-K1 membrane preparations; eight concentrations from 0.01 to 100,000 nM) is greater than 100000 nM.

And the EC50 of receptor activation (GTPγ[35S] scintillation proximity assay on CHO-K1 membrane preparations; eight concentrations from 0.01 to 100,000 nM) [7]?
Its EC50 of receptor activation (GTPγ[35S] scintillation proximity assay on CHO-K1 membrane preparations; eight concentrations from 0.01 to 100,000 nM) is greater than 100000 nM.

And the EC50 of receptor activation (GTPγ[35S] scintillation proximity assay on CHO-K1 membrane preparations; eight concentrations from 0.01 to 100,000 nM) [8]?
Its EC50 of receptor activation (GTPγ[35S] scintillation proximity assay on CHO-K1 membrane preparations; eight concentrations from 0.01 to 100,000 nM) is greater than 100000 nM.

What about the EC50 of receptor activation (cAMP HTRF assay, CHO-K1 cells; eight concentrations from 0.01 to 100,000 nM) [9] of the same molecule?
Its EC50 of receptor activation (cAMP HTRF assay, CHO-K1 cells; eight concentrations from 0.01 to 100,000 nM) is greater than 100000 nM.

And the EC50 of receptor activation (Aequorin assay, recombinant cells; eight concentrations from 0.01 to 100,000 nM) [10]?
The EC50 of receptor activation (Aequorin assay, recombinant cells; eight concentrations from 0.01 to 100,000 nM) was greater than 100000 nM.

And the EC50 of receptor activation (GTPγ[35S] scintillation proximity assay on CHO-K1 membrane preparations; eight concentrations from 0.01 to 100,000 nM) [11]?
The EC50 of receptor activation (GTPγ[35S] scintillation proximity assay on CHO-K1 membrane preparations; eight concentrations from 0.01 to 100,000 nM) was greater than 100000 nM.

What about the EC50 of receptor activation (Aequorin assay, recombinant cells; eight concentrations from 0.01 to 100,000 nM) [12] of the same molecule?
The EC50 of receptor activation (Aequorin assay, recombinant cells; eight concentrations from 0.01 to 100,000 nM) was greater than 100000 nM.

What about the EC50 of receptor activation (GTPγ[35S] scintillation proximity assay on CHO-K1 membrane preparations; eight concentrations from 0.01 to 100,000 nM) (Melatonin receptor MT2R) of the same molecule?
The EC50 of receptor activation (GTPγ[35S] scintillation proximity assay on CHO-K1 membrane preparations; eight concentrations from 0.01 to 100,000 nM) was greater than 100000 nM.

And the EC50 of receptor activation (cAMP HTRF assay, CHO-K1 cells; eight concentrations from 0.01 to 100,000 nM) [13]?
The EC50 of receptor activation (cAMP HTRF assay, CHO-K1 cells; eight concentrations from 0.01 to 100,000 nM) was greater than 100000 nM.

And the EC50 of MC1R activation (cAMP HTRF assay, CHO-K1 cells expressing human MC1R) [1]?
The EC50 of MC1R activation (cAMP HTRF assay, CHO-K1 cells expressing human MC1R) was 0.42 nM.

B2: MC1R-agonist pentapeptide 1 (Bz-Gly-His-D-Phe-Arg-L-Trp-NH2) (peptide)
peptide: Bz-GH[dF]RW-NH2
SMILES: N=C(N)NCCC[C@H](NC(=O)[C@@H](Cc1ccccc1)NC(=O)[C@H](Cc1c[nH]cn1)NC(=O)CNC(=O)c1ccccc1)C(=O)N[C@@H](Cc1c[nH]c2ccccc12)C(N)=O
For B2, which EC50 of MC1R activation (cAMP HTRF assay, CHO-K1 cells expressing human MC1R) [1] is on record?
Its EC50 of MC1R activation (cAMP HTRF assay, CHO-K1 cells expressing human MC1R) is 0.041 nM.

B3: MC1R-agonist pentapeptide 5 (Bz-Gly-His-D-Phe-Arg-L-Trp-N(Propyl)2) (peptide)
peptide: Bz-GH[dF]RW-NPr2
SMILES: CCCN(CCC)C(=O)[C@H](Cc1c[nH]c2ccccc12)NC(=O)[C@H](CCCNC(=N)N)NC(=O)[C@@H](Cc1ccccc1)NC(=O)[C@H](Cc1c[nH]cn1)NC(=O)CNC(=O)c1ccccc1
With B3 as the molecule, how does the EC50 of MC1R activation (cAMP HTRF assay, CHO-K1 cells expressing human MC1R) [1] read?
The EC50 of MC1R activation (cAMP HTRF assay, CHO-K1 cells expressing human MC1R) was 0.88 nM.

B4: MC1R-agonist pentapeptide 6 (Bz-Gly-His-D-Phe-Arg-D-Phe-NH2) (peptide)
peptide: Bz-GH[dF]R[dF]-NH2
SMILES: N=C(N)NCCC[C@H](NC(=O)[C@@H](Cc1ccccc1)NC(=O)[C@H](Cc1c[nH]cn1)NC(=O)CNC(=O)c1ccccc1)C(=O)N[C@H](Cc1ccccc1)C(N)=O
Which EC50 of MC1R activation (cAMP HTRF assay, CHO-K1 cells expressing human MC1R) [1] does the source give for B4 here?
Its EC50 of MC1R activation (cAMP HTRF assay, CHO-K1 cells expressing human MC1R) is 1.79 nM.

Bz-GH[dF]R[N(indol-3-ylmethyl)Gly]-NH2 [MC1R-agonist pentapeptide 7 (Bz-Gly-His-D-Phe-Arg-[N-(CH2-3-indolyl)Gly]-NH2)] was tested. Which EC50 of MC1R activation (cAMP HTRF assay, CHO-K1 cells expressing human MC1R) [1] did it give?
The EC50 of MC1R activation (cAMP HTRF assay, CHO-K1 cells expressing human MC1R) was 4.4 nM.
